Laboratory results as given in patent US11136407 (AIMM THERAPEUTICS B V, dated 2021).
Bridges are numbered along the chain shown (N, C = ends). Primed or numbered codes have the meaning given here. Where no end group is shown, it is not given here. The star is where a group is joined. PEG2′ = PEG2 spacer group linking an N-terminal biotin to the peptide; Biotin = O=C1N[C@H]2[C@H](CS[C@H]2CCCCC(=O)*)N1

What was measured:
[1] = biological target: T1, m4 circular peptide biotin-PEG(2)-CSPKKDVLETFTVKSSC (human, disulfide 1-17; not fully specified; printed as biotin-PEG(2)-CSPKKDVLETFTVKSSC); test: ELISA and SPR
T1 construct: synthetic peptide; also called circular constructed m4 peptide
T1 peptide: {Biotin-PEG2′}-CSPKKDVLETFTVKSSC

mouse CD9 on platelets = biological target: T2, mouse CD9 on platelets (mouse, UniProt P40240 1-226); test: flow cytometry on NSG mouse blood, IgG-bio SA-PeCy7
T2 construct: whole, on cells
T2 sequence (looked up): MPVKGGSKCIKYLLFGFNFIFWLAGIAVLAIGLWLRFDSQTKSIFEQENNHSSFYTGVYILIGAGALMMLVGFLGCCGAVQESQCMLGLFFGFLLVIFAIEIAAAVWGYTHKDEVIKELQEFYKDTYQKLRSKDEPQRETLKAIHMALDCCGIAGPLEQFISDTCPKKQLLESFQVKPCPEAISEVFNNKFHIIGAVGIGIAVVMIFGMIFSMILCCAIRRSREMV

[2] = biological target: T3, CD9-3×FLAG-rabbitFc-Sortase-biotin (human; rabbit, biotin attached at the C-terminus by Sortase A with a GGG-biotin nucleophile; the HIS tag is removed by that reaction); test: SPR (IBIS), B cell supernatant on the CD9 spot; unit inferred
T3 construct: also called CD9-EC2-3×FLAG-rabbitFc; recombinant CD9-EC2 protein; not shown: Fc region (CH2-CH3) of a rabbit IgG1 protein, amino acids 108-322, UniProt P01870
T3 chain (part 1 of 2): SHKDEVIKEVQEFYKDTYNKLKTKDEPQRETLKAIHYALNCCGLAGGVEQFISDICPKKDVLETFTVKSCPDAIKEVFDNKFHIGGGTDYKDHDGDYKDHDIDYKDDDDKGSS
T3 chain (part 2 of 2): GGGSLPETGGHHHHHH

[3] = biological target: T3, CD9-3×FLAG-rabbitFc-Sortase-biotin; test: SPR on CD9-3xFLAG-rabbitFc-Sortase-biotin spots, CHO production supernatant; unit and power of ten from the legend paragraph 219
[4] = biological target: T3, CD9-3×FLAG-rabbitFc-Sortase-biotin; test: SPR on CD9-3xFLAG-rabbitFc-Sortase-biotin spots, CHO production supernatant; unit from the legend paragraph 219
human CD9 = biological target: T4, human CD9 (human, UniProt P21926 2-228); test: flow cytometry on melanoma (MelWBO) cells, CHO supernatant
T4 construct: Natural CD9 on tumor cell lines, primary cells and platelets, or in their lysates (Western blot, immunoprecipitation); also called MRP-1; MIC3
T4 sequence: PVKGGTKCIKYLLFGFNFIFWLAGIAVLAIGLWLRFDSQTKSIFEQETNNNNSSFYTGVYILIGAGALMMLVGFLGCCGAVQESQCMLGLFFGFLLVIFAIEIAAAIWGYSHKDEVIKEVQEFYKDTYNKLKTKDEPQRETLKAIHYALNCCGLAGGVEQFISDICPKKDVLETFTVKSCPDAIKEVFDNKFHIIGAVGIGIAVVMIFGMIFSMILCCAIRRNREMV

[5] = biological target: T3, CD9-3×FLAG-rabbitFc-Sortase-biotin; test: SPR on CD9 coated chip, CHO production supernatant
surface CD81 = biological target: T5, surface CD81 (human, UniProt P60033); test: flow cytometry, AT14-12 (IgG1) against AT10-02 (IgG1) on transduced HL-60 cells
T5 construct: also called CD81 on cells
T5 sequence (tetraspanin chain, looked up): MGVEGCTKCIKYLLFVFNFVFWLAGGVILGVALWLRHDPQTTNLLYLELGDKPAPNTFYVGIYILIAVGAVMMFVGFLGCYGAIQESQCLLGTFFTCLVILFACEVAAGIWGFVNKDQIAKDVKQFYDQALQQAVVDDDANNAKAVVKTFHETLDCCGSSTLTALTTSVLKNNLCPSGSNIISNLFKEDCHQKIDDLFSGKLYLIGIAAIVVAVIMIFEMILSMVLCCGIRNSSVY

B1: antibody AT14-012 (antibody, V domains shown)
VH: EVQVVESGGGLVQPGRSLRLSCAASGFTFDDYAMHWVRQAPGKGLEWVSGISWNSGSIVYADSVKGRFTISRDNAKNSLYLQLNSLRAEDTAFYYCAKAVSGYYPYFDYWGQGILVTVSS
VL: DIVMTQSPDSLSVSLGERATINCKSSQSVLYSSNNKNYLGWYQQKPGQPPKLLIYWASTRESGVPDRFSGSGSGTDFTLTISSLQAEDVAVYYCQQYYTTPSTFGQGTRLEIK
notes: also called AT1412; WT AT14-012
B1: no binding [1]; no binding (mouse CD9 on platelets).

B2: 2H15 B cell subclone 1D5 (antibody, V domains shown)
VH: EVQVVESGGGLVQPGRSLRLSCAASGFTFDDYAMYWVRQAPGKGLEWVSGISWNSGSIVYADSVKGRFTISRDNAKNSLYLQLNSLRAEDTAFYYCAKAVSGYYPYFDYWGQGILVTVSS
VL: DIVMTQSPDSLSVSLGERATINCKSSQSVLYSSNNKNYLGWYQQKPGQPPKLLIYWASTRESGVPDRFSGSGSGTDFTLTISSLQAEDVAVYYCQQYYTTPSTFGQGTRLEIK
notes: group 1; B cell supernatant
Binder B2 has a Kd [2] of 2.3 nM.

B3: 2H15 B cell subclone 1F5 (antibody, V domains shown)
VH: EVQVVESGGGLVQPGRSLRLSCAASGFTFDDYAMHWVRQAPGKGLEWVSGISWNSGSIVYADSVKGRFTISRDNAKNSLYLQLNSLRAEDTAFYYCAKAVSGYFPYFDYWGQGILVTVSS
VL: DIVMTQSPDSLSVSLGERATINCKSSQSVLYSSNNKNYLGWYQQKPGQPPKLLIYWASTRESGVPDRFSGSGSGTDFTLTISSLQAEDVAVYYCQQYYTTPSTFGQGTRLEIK
notes: group 1; B cell supernatant
In the case of B3, the Kd [2] is reported as 3.8 nM.

B4: 2H15 B cell subclone 2D12 (antibody, V domains shown)
VH: EVQVVESGGGLVQPGRSLRLSCAASGFTFDDYAMHWVRQAPGKGLEWVSGISWNSGSIVYADSVKGRFTISRDNAKNSLYLQLNSLRAEDTAFYYCAKAVSGYYPYFHYWGQGILVTVSS
VL: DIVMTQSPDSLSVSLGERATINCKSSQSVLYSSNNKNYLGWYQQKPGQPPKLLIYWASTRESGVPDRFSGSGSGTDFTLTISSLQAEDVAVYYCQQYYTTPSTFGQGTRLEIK
notes: group 2; B cell supernatant
For B4, the Kd [2] was 5.2 nM.

B5: 2H15 B cell subclone 4D4 (antibody, IgG3, V domains shown)
VH: EVQVVESGGGLVQPGRSLRLSCAASGFTFDDYAMHWVRQAPGKGLEWVSGISWNSGSIVYADSVKGRFTISRDNAKNSLYLQLNSLRAEDTAFYYCAKAVSGYYPYFDYWGQGILVTVSS
VL: DIVMTQSPDSLSVSLGERATINCKSSQSVLYSSNNKNYLGWYQQKPGQPPKLLIYWASIRESGVPDRFSGSGSGTDFTLTISSPQAEDVAVYYCQQYYTTPSTFGQGTRLEIK
notes: group 2; B cell supernatant, IgG3
Binder B5 has a Kd [2] of 15.9 nM.

B6: 2H15 B cell subclone 4H10 (antibody, V domains shown)
VH: EVQVVESGGGLVQPGRSLRLSCAASGFTFDDYAMYWVRQAPGKGLEWVSGISWNSGSIVYADSVKGRFTISRDNAKNSLYLQLNSLRAEDTAFYYCAKAVSGYYPYFDYWGQGILVTVSS
VL: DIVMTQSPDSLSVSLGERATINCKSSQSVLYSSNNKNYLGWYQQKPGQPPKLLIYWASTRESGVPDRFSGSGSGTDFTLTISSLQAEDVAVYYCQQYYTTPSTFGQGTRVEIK
notes: group 1; B cell supernatant
B6 gave a Kd [2] of 6.1 nM.

B7: 2H15 B cell subclone 10D1 (antibody, V domains shown)
VH: EVQVVESGGGLVQPGRSLRLSCAASGFTFDDYAMYWVRQAPGKGLEWVSGISWNSGSIVYADSVKGRFTISRDNAKNSLYLQLNSLRAEDTAFYYCAKAVSGYYPYFDYWGQGILVTVSS
VL: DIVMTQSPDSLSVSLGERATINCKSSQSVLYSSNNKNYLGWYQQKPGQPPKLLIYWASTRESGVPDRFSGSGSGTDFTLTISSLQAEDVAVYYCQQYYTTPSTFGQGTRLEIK
notes: group 1; B cell supernatant
For B7, the Kd [2] was 3.9 nM.

B8: AT14-012 double mutant D116H/T29N (antibody, V domains shown)
VH: EVQVVESGGGLVQPGRSLRLSCAASGFNFDDYAMHWVRQAPGKGLEWVSGISWNSGSIVYADSVKGRFTISRDNAKNSLYLQLNSLRAEDTAFYYCAKAVSGYYPYFHYWGQGILVTVSS
VL: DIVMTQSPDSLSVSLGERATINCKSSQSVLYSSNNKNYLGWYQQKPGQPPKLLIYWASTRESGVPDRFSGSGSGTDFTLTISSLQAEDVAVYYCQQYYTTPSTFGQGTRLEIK
notes: also called combination of the two group 2 mutations
With B8 the koff [3] was 0.00297 s⁻¹, the kon [3] was 708000 M⁻¹ s⁻¹ and the Kd [4] was 4.19 nM. B8: binds (human CD9).

B9: AT14-012 double mutant H40Y/Y112F (antibody, V domains shown)
VH: EVQVVESGGGLVQPGRSLRLSCAASGFTFDDYAMYWVRQAPGKGLEWVSGISWNSGSIVYADSVKGRFTISRDNAKNSLYLQLNSLRAEDTAFYYCAKAVSGYFPYFDYWGQGILVTVSS
VL: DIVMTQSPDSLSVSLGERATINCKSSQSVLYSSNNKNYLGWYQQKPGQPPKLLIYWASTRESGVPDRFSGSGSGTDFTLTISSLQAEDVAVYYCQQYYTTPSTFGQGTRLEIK
notes: also called double group 1 mutant; combination group 1 mutant
B9 was tested, and the Kd [5] was roughly 0.22 nM, the “fold enhancement of affinity against WT AT14-012” value (from here on “fold enhancement of affinity”) [5] was 250 times and the koff [3] was 3.69e-05 s⁻¹. For the same binder, the kon [3] was 164000 M⁻¹ s⁻¹, the Kd [4] was 0.219 nM and the binding result (human CD9) was “binds”.

B10: AT14-012 quadruple mutant H40Y/Y112F/D116H/T29N (antibody, V domains shown)
VH: EVQVVESGGGLVQPGRSLRLSCAASGFNFDDYAMYWVRQAPGKGLEWVSGISWNSGSIVYADSVKGRFTISRDNAKNSLYLQLNSLRAEDTAFYYCAKAVSGYFPYFHYWGQGILVTVSS
VL: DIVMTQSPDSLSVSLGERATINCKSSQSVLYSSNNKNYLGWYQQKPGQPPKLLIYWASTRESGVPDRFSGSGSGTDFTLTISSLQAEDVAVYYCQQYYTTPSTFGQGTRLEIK
notes: also called quadruple variant
For B10, the Kd [5] was roughly 0.455 nM, the “fold lower affinity against the group 1 double mutant (H40Y/Y112F)” value [5] was 2 times and the koff [3] was 6.92e-05 s⁻¹. The kon [3] was 153000 M⁻¹ s⁻¹, the Kd [4] was 0.455 nM and the binding result (human CD9) was “binds”.

B11: AT14-012 single mutant D116H (antibody, V domains shown)
VH: EVQVVESGGGLVQPGRSLRLSCAASGFTFDDYAMHWVRQAPGKGLEWVSGISWNSGSIVYADSVKGRFTISRDNAKNSLYLQLNSLRAEDTAFYYCAKAVSGYYPYFHYWGQGILVTVSS
VL: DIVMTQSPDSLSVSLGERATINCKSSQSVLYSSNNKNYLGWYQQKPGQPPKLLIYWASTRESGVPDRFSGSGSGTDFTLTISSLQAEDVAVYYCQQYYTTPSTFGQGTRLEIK
For B11, the “fold enhancement of affinity” value [5] was 10 times, the koff [3] was 0.00217 s⁻¹ and the kon [3] was 470000 M⁻¹ s⁻¹. The Kd [4] was 4.62 nM and the binding result (human CD9) was “binds”.

B12: AT14-012 single mutant H40Y (antibody, V domains shown)
VH: EVQVVESGGGLVQPGRSLRLSCAASGFTFDDYAMYWVRQAPGKGLEWVSGISWNSGSIVYADSVKGRFTISRDNAKNSLYLQLNSLRAEDTAFYYCAKAVSGYYPYFDYWGQGILVTVSS
VL: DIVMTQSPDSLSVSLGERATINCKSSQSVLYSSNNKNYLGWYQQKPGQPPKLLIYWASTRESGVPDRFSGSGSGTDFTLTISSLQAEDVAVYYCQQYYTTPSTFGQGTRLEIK
For B12, the “fold enhancement of affinity” value [5] was 100 times, the koff [3] was 0.000202 s⁻¹ and the kon [3] was 372000 M⁻¹ s⁻¹. For the same binder, the Kd [4] was 0.543 nM and the binding result (human CD9) was “binds”.

B13: AT14-012 single mutant T29N (antibody, V domains shown)
VH: EVQVVESGGGLVQPGRSLRLSCAASGFNFDDYAMHWVRQAPGKGLEWVSGISWNSGSIVYADSVKGRFTISRDNAKNSLYLQLNSLRAEDTAFYYCAKAVSGYYPYFDYWGQGILVTVSS
VL: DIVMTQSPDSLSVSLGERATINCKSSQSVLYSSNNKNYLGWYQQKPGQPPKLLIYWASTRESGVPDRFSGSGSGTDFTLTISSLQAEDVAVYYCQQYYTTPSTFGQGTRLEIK
Work on B13 yielded a koff [3] of 0.00126 s⁻¹, a kon [3] of 25900 M⁻¹ s⁻¹ and a Kd [4] of 50.1 nM. B13: binds (human CD9).

B14: AT14-012 single mutant Y112F (antibody, V domains shown)
VH: EVQVVESGGGLVQPGRSLRLSCAASGFTFDDYAMHWVRQAPGKGLEWVSGISWNSGSIVYADSVKGRFTISRDNAKNSLYLQLNSLRAEDTAFYYCAKAVSGYFPYFDYWGQGILVTVSS
VL: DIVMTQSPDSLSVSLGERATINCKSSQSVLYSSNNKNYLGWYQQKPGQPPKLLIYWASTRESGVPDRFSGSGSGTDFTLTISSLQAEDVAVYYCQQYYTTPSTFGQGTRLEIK
For B14, the “fold enhancement of affinity” value [5] was 50 times, the koff [3] was 0.000203 s⁻¹ and the kon [3] was 185000 M⁻¹ s⁻¹. The Kd [4] was 1.09 nM and the binding result (human CD9) was “binds”.

B15: AT14-012 recombinant antibody engineered as an IgG1 (antibody, V domains shown)
VH: EVQVVESGGGLVQPGRSLRLSCAASGFTFDDYAMHWVRQAPGKGLEWVSGISWNSGSIVYADSVKGRFTISRDNAKNSLYLQLNSLRAEDTAFYYCAKAVSGYYPYFDYWGQGILVTVSS
VL: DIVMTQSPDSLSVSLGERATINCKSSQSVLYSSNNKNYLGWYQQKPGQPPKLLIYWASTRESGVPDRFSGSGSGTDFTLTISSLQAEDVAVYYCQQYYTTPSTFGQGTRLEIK
modifications: Some experiments used Alexa647 or biotin labelled antibody, or a sortase-tagged (ST) heavy chain. None of this is carried in the letters.
notes: May be the same molecule as m1 if m1 stands for the IgG1 form; also called AT14-012 IgG1
B15: no binding (surface CD81).
